The target of experiment [1] is T1, human dipeptidyl peptidase IV expressed on cells (PC3 and CaCo2 cells) (human, UniProt P27487 1-766).
T1 construct: whole, on cells; also called hDPP-IV-expressing cells; hDPP-IV-positive cell lines
The experiment in a line: flow cytometry, Alexa Fluor 488 conjugated B12 IgG on hDPP-IV-expressing PC3 cells against unstained cells.

Experiment [2] concerns the target T2, recombinant human dipeptidyl peptidase IV (hDPP-IV), biotinylated (human, UniProt P27487 29-766, limits assumed, biotinylated).
T2 construct: also called human DPP-IV
The experiment in a line: ELISA: B12 IgG 0.1 to 500 nM on biotinylated hDPP-IV captured on streptavidin-coated wells; detection with peroxidase anti-human IgG mAb; OD 450nm. The procedure:
FIG. 2A-FIG. 2E show in vitro characterization of the anti-FAP monoclonal antibody B12 immunoglobulin G (IgG). FIG. 2A. B12 IgG specificity for human fibroblast activation protein alpha (hFAP) (circle), mouse fibroblast activation protein alpha (mFAP) (square), and the homologous protease human dipeptidyl peptidase IV (hDPP-IV) (triangle) was determined by enzyme-linked immunosorbent assay (ELISA). B12 IgG was serial-diluted from 500 nM to 0.1 nM and added to protein coated wells. B12 IgG binding was detected by a peroxidase conjugated […] monoclonal antibody. FIG. 2B. […] FIG. 2C. B12 IgG binding to membrane-bound FAP was analyzed by flow cytometry. […] Unstained cells (blue line) were used as a negative control. FIG. 2D. mRNA levels of hDPP-IV were investigated by quantitative RT-PCR in prostate (R1-EnzR, R1-EnzR^FAP, PC3) and colon (Caco2) cancer cells. mRNA fold change is normalized to R1-EnzR. **p 0.01. FIG. 2E.
Dilution ELISA: A MaxiSorp plate was coated and blocked as described above. 50 μL of biotinylated human FAP, murine FAP, or human DPP-IV ([…] in PBS, 1% BSA, 0.005% Tween20) was added to 8 sets of triplicate wells each. […] B12 IgG binding was detected with a 1:1000 dilution of anti-human IgG monoclonal antibody conjugated to peroxidase (sc-2769, Santa Cruz Biotechnology, Dallas, Tex.) in PBS, 1% BSA.
(An ELISA detects its analyte on a solid surface through an enzyme-linked reagent.)

The source of these data is patent publication US20200246383A1 (REGENTS OF THE UNIVERSITY OF MINNESOTA, published 2020).

T2 sequence (P27487 29-766 limits assumed): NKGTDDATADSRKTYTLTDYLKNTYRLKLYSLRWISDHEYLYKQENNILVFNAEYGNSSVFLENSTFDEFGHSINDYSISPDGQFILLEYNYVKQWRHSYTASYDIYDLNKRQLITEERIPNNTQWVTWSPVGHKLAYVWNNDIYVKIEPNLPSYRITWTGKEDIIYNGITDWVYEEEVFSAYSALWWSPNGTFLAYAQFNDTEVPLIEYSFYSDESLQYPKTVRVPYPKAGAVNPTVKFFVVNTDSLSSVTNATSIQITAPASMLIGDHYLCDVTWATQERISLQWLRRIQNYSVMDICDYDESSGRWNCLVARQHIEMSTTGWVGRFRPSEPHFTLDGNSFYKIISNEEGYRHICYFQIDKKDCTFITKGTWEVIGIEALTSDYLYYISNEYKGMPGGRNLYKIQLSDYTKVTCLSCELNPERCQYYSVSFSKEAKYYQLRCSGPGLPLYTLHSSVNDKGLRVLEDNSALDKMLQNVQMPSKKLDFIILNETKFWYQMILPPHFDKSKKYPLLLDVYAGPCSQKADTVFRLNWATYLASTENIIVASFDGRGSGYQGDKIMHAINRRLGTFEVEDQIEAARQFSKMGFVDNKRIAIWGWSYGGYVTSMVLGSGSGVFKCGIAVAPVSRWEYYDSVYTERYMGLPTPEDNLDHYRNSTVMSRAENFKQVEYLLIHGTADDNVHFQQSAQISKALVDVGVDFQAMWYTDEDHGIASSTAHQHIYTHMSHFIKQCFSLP
T1 sequence (P27487 whole entry): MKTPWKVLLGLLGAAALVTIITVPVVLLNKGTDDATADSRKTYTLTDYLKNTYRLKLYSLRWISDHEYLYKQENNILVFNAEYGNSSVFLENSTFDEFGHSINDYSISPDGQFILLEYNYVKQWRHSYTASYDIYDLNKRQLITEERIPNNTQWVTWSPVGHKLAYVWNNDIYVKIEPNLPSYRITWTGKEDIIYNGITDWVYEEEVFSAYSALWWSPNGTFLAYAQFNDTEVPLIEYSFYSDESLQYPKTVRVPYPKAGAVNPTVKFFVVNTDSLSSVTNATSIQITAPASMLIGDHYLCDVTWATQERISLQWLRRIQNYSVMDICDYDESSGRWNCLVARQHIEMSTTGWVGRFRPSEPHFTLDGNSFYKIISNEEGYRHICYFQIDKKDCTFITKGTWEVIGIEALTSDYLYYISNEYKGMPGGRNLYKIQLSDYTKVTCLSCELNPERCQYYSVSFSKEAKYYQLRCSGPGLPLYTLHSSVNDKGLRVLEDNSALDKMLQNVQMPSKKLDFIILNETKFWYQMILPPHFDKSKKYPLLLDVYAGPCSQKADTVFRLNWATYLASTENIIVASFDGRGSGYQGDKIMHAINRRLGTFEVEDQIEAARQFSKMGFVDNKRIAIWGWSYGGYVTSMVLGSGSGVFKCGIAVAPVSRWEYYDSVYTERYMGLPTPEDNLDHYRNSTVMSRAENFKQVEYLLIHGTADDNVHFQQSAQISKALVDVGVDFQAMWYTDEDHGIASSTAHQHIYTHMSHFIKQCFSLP

B1: B12 IgG (chimeric anti-FAP monoclonal antibody: murine B12 variable domains in a full-length human IgG) (antibody, V domains shown)
VH: EVMLVESGGGLVQPGGSLKLSCAASGFTFSSYGMSWVRQTPDKRLELVATINSNGGSTYYPDSVKGRFTISRDNAKNTLYLQMSSLKSEDTAMYYCARDYFDYWGQGTTLTVSS
VL: DIVITQSPSSLSASLGERVSLTCRASQEISGYLSWLQQKPDGTIKLIYAASTLDSGVPKRFSGSRSGSDYSLTISSLESEDFADYYCLQYASYPWTFGGGTKLEIKR
notes: They were cloned into pFUSEss human IgG expression vectors (Invivogen) and expressed in HEK293T cells; capture was detected with an anti-human IgG1 secondary and the isotype control is human IgG1; also called anti-FAP mAb; aFAP
For B1, the binding result is given as “no binding (tested: 100 nM)” in experiment [1] and “no binding (tested: 500 nM)” in experiment [2].
